Reference: article doi:10.1101/2024.08.14.606984 (bioRxiv, 2024)

Biological target: the molecule itself
Experiment: SEC

B1: GCN2^K619R, kinase dead mutant of human General Control Non-derepressible 2 (GCN2) (enzyme, UniProt Q9P2K8 1-1649, looked up)
chain: MAGGRGAPGRGRDEPPESYPQRQDHELQALEAIYGADFQDLRPDACGPVKEPPEINLVLYPQGLTGEEVYVKVDLRVKCPPTYPDVVPEIELKNAKGLSNESVNLLKSRLEELAKKHCGEVMIFELAYHVQSFLSEHNKPPPKSFHEEMLERRAQEEQQRLLEAKRKEEQEQREILHEIQRRKEEIKEEKKRKEMAKQERLEIASLSNQDHTSKKDPGGHRTAAILHGGSPDFVGNGKHRANSSGRSRRERQYSVCNSEDSPGSCEILYFNMGSPDQLMVHKGKCIGSDEQLGKLVYNALETATGGFVLLYEWVLQWQKKMGPFLTSQEKEKIDKCKKQIQGTETEFNSLVKLSHPNVVRYLAMNLKEQDDSIVVDILVEHISGVSLAAHLSHSGPIPVHQLRRYTAQLLSGLDYLHSNSVVHKVLSASNVLVDAEGTVKITDYSISKRLADICKEDVFEQTRVRFSDNALPYKTGKKGDVWRLGLLLLSLSQGQECGEYPVTIPSDLPADFQDFLKKCVCLDDKERWSPQQLLKHSFINPQPKMPLVEQSPEDSEGQDYVETVIPSNRLPSAAFFSETQRQFSRYFIEFEELQLLGKGAFGAVIKVQNKLDGCCYAVRRIPINPASRQFRRIKGEVTLLSRLHHENIVRYYNAWIERHERPAGPGTPPPDSGPLAKDDRAARGQPASDTDGLDSVEAAAPPPILSSSVEWSTSGERSASARFPATGPGSSDDEDDDEDEHGGVFSQSFLPASDSESDIIFDNEDENSKSQNQDEDCNEKNGCHESEPSVTTEAVHYLYIQMEYCEKSTLRDTIDQGLYRDTVRLWRLFREILDGLAYIHEKGMIHRDLKPVNIFLDSDDHVKIGDFGLATDHLAFSADSKQDDQTGDLIKSDPSGHLTGMVGTALYVSPEVQGSTKSAYNQKVDLFSLGIIFFEMSYHPMVTASERIFVLNQLRDPTSPKFPEDFDDGEHAKQKSVISWLLNHDPAKRPTATELLKSELLPPPQMEESELHEVLHHTLTNVDGKAYRTMMAQIFSQRISPAIDYTYDSDILKGNFSIRTAKMQQHVCETIIRIFKRHGAVQLCTPLLLPRNRQIYEHNEAALFMDHSGMLVMLPFDLRIPFARYVARNNILNLKRYCIERVFRPRKLDRFHPKELLECAFDIVTSTTNSFLPTAEIIYTIYEIIQEFPALQERNYSIYLNHTMLLKAILLHCGIPEDKLSQVYIILYDAVTEKLTRREVEAKFCNLSLSSNSLCRLYKFIEQKGDLQDLMPTINSLIKQKTGIAQLVKYGLKDLEEVVGLLKKLGIKLQVLINLGLVYKVQQHNGIIFQFVAFIKRRQRAVPEILAAGGRYDLLIPQFRGPQALGPVPTAIGVSIAIDKISAAVLNMEESVTISSCDLLVVSVGQMSMSRAINLTQKLWTAGITAEIMYDWSQSQEELQEYCRHHEITYVALVSDKEGSHVKVKSFEKERQTEKRVLETELVDHVLQKLRTKVTDERNGREASDNLAVQNLKGSFSNASGLFEIHGATVVPIVSVLAPEKLSASTRRRYETQVQTRLQTSLANLHQKSSEIEILAVDLPKETILQFLSLEWDADEQAFNTTVKQLLSRLPKQRYLKLVCDEIYNIKVEKKVSVLFLYSYRDDYYRILF
In the case of B1, the “stoichiometry N” value is reported as 2.
